Experimental data: patent US20060147378A1, “Azulene dimer-quenched, near-infrared fluorescent probes” (priority 2002, published 2006)
Where no end group is shown, it is not given here. Alexa‑680 maleimide = near-infrared fluorochrome (Ex 679 nm, Em 702 nm) reacted with the cysteine; NIRQ750 = not defined here

Columns and labels:
[1] = system: T1, NIRQ750-GDEVDGSGC-Alexa-680 caspase-3 substrate probe
T1 sequence: GDEVDGSGC

[2] = target: T2, caspase-3 (Homo sapiens, UniProt P42574); assay: Activation of NIRF probes by caspase-3 with or without inhibitor; type: biochemical
T2 sequence (P42574 29-175 limits assumed): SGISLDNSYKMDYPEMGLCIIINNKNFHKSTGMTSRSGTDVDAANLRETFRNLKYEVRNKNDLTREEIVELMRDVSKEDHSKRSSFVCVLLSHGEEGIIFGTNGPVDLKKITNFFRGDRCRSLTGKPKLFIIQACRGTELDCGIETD
T2 sequence (P42574 176-277 limits assumed): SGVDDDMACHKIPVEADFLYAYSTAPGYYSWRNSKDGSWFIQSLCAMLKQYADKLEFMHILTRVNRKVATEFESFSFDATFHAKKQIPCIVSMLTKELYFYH
Protocol: The HPLC purified NIRF probes were tested against caspase-3 with or without an inhibitor of the enzyme in pH7.2 buffer (20 mM PIPES, 100 mM NaCl, 10 mM DTT, 1 mM EDTA, 0.1% CHAPS, 10% sucrose). Within 180 minutes, the fluorescence signal of NIRQ750-probe (probe 6, FIG. 7A) had increased about 4-fold while no activation was observed when the caspase-3 specific inhibitor was present (FIG. 7B). […] As expected, the fluorescence signal of both negative controls, (probe 7, FIG. 7A) with enzyme and probe 6 without enzyme, were remained unchanged.

Substance | fluorescence signal increase (probe activation by enzymatic cleavage) within 180 minutes [1] | activation (fluorescence signal) with caspase-3 specific inhibitor present ([2]; caspase-3 plus caspase-3 specific inhibitor, pH7.2 buffer) | fluorescence signal without enzyme ([2]; negative control, no enzyme, pH7.2 buffer) | increase of fluorescence signal ([2]; with caspase-3, within 180 minutes, pH7.2 buffer (PIPES, NaCl, DTT, EDTA, CHAPS, sucrose))
caspase-3 | had increased about 4-fold |  |  | 
probe 6: NIRQ750 anchored to N-terminus of caspase-3 cleavable peptide GDEVDGSGC, Alexa-680 maleimide on the cysteine residue (NIRQ750-GDEVDGSGC(Alexa‑680 maleimide); not fully specified (C-terminus); reading uncertain) |  | no activation | unchanged | about 4 fold
